According to paper PMC2978346:

Biological target: His6-PfSSB (Plasmodium falciparum 3D7, UniProt Q8I415 77-284)
Experiment: EMSA

B1: 70-mer ssDNA oligonucleotide (ssDNA)
DNA: CTGCCACACACCACCAAAGCTAACTGACAGGAGAATCCAGATGGATCATTTAAAGCATTTGCAACAATTG
binding result: binds
